Test results from article PMC12203913, “XPC-RAD23B enhances UV-DDB binding to DNA to facilitate lesion search in nucleotide excision repair” (Nucleic Acids Research, 2025).

What was measured:
[1] = target: T1, UV-DDB (DDB1-DDB2);XPC-RAD23B (Homo sapiens;Homo sapiens, UniProt Q16531;Q92466;Q01831;P54727 1-1140;1-427;1-940;1-409, |); test: single-molecule DNA curtain; details: 0.2 nM UV-DDB, 0.4 nM XPC-RAD23B, 3-fold more at CPD sites than random sites, three CPDs around 33.5 kbp (33513-33630), EMSA: 50 mM Tris-HCl pH 7.5, 100 mM NaCl, 0.1 mg/ml BSA, 1 mM DTT, 23°C, 45 min, DNA curtains: 10 mM Tris-HCl pH 8.0, 1 mM EDTA, 0.16% BSA, 0-100 mM …
[2] = target: UV-DDB (heterodimer of DDB1 and DDB2) (human, UniProt Q16531 1-1140; Q92466 1-427); test: cell-based or functional assay
[3] = target: T1, UV-DDB (DDB1-DDB2);XPC-RAD23B; test: EMSA; 2 nM XPC-RAD23B, UV-DDB titrated, 10 nM DNA; EMSA: 50 mM Tris-HCl pH 7.5, 100 mM NaCl, 0.1 mg/ml BSA, 1 mM DTT, 23°C, 45 min; DNA curtains: 10 mM Tris-HCl pH 8.0, 1 mM EDTA, 0.16% BSA, 1 mM DTT, 0-100 mM NaCl, 23°C; details: protein: recombinant;recombinant; tags: 3xHA at N-terminus of DDB1 (1xFLAG removed by PreScission);3xFLAG at N-terminus of XPC; copies: 1;1;1;1; label: 5'-FAM on strand 2; blunt; T21 of strand 1 faces T of strand 2 (T-T mismatch at the CPD)
[4] = target: T1, UV-DDB (DDB1-DDB2);XPC-RAD23B; test: EMSA; 15 nM XPC-RAD23B, UV-DDB titrated, 10 nM DNA; co-bound band confirmed by native western; EMSA: 50 mM Tris-HCl pH 7.5, 100 mM NaCl, 0.1 mg/ml BSA, 1 mM DTT, 23°C, 45 min; DNA curtains: 10 mM Tris-HCl pH 8.0, 1 mM EDTA, 0.16% BSA, 1 mM DTT, 0-100 mM NaCl, 23°C; details: protein: recombinant;recombinant; tags: 3xHA at N-terminus of DDB1 (1xFLAG removed by PreScission);3xFLAG at N-terminus of XPC; copies: 1;1;1;1; label: 5'-FAM on strand 2; blunt; T21 of strand 1 faces T of strand 2 (T-T mismatch at the CPD)
[5] = target: UV-DDB (DDB1-DDB2) (Homo sapiens, UniProt Q16531;Q92466 1-1140;1-427); test: EMSA; 4 nM DNA, no competitor; EMSA: 50 mM Tris-HCl pH 7.5, 100 mM NaCl, 0.1 mg/ml BSA, 1 mM DTT, 23°C, 45 min; DNA curtains: 10 mM Tris-HCl pH 8.0, 1 mM EDTA, 0.16% BSA, 1 mM DTT, 0-100 mM NaCl, 23°C; details: protein: recombinant, tags: 3xHA at N-terminus of DDB1 (1xFLAG removed by PreScission), copies: 1;1, label: 5'-FAM on strand 2, blunt
[6] = target: XPC-RAD23B (Homo sapiens, UniProt Q01831;P54727 1-940;1-409); test: as above; details: protein: recombinant, tags: 3xFLAG at N-terminus of XPC, copies: 1;1, label: 5'-FAM on strand 2, blunt
[7] = target: T1, UV-DDB (DDB1-DDB2);XPC-RAD23B; test: EMSA; 2 nM XPC-RAD23B increases UV-DDB binding; EMSA: 50 mM Tris-HCl pH 7.5, 100 mM NaCl, 0.1 mg/ml BSA, 1 mM DTT, 23°C, 45 min; DNA curtains: 10 mM Tris-HCl pH 8.0, 1 mM EDTA, 0.16% BSA, 1 mM DTT, 0-100 mM NaCl, 23°C; details: protein: recombinant;recombinant; tags: 3xHA at N-terminus of DDB1 (1xFLAG removed by PreScission);3xFLAG at N-terminus of XPC; copies: 1;1;1;1; label: 5'-FAM on strand 2; blunt
[8] = T21 of strand 1 faces T of strand 2 (T-T mismatch at the CPD)

T1 sequence (Q16531 whole entry, chain 1 of 2): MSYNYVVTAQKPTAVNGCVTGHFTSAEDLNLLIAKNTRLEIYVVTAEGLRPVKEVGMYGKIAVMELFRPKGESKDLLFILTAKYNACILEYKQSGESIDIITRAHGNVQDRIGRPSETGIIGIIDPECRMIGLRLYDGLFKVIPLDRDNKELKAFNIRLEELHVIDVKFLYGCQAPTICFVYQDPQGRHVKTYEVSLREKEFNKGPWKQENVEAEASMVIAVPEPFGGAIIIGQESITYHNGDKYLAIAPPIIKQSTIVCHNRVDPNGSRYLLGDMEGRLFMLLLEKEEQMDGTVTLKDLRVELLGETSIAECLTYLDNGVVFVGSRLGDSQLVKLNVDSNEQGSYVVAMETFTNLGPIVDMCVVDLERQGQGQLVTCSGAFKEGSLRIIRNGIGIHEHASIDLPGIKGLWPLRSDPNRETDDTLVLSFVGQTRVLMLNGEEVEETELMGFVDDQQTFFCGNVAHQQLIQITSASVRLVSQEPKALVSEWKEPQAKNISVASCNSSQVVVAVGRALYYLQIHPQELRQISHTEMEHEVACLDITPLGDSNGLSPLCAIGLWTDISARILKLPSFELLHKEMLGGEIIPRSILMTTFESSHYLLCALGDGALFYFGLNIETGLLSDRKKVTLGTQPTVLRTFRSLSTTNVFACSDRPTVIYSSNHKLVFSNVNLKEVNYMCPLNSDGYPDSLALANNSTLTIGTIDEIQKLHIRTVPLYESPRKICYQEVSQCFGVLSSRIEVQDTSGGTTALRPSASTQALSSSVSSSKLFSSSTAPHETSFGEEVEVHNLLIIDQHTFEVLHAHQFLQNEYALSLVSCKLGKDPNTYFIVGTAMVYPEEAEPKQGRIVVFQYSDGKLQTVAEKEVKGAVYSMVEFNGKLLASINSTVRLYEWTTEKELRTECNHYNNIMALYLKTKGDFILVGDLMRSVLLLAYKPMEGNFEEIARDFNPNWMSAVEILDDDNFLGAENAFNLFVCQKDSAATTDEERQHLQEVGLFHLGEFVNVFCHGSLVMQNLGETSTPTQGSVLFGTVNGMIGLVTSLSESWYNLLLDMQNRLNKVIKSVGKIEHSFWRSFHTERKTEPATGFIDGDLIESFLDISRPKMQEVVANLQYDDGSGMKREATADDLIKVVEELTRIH
T1 sequence (Q92466 whole entry, chain 2 of 2): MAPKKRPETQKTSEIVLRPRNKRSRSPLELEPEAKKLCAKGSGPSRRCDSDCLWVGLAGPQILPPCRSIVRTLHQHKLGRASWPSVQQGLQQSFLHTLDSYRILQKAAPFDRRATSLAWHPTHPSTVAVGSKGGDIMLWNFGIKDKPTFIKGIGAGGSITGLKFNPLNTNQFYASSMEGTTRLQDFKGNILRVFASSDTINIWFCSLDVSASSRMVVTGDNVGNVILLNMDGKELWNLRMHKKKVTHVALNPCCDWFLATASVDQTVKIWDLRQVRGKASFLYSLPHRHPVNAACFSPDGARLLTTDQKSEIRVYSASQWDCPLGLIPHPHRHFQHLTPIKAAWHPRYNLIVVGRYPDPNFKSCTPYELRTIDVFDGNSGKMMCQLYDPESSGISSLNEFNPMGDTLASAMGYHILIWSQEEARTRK
UV-DDB (DDB1-DDB2), sequence (Q16531 whole entry, chain 1 of 2): as the sequence (Q16531 whole entry, chain 1 of 2) above
UV-DDB (DDB1-DDB2), sequence (Q92466 whole entry, chain 2 of 2): as the sequence (Q92466 whole entry, chain 2 of 2) above
UV-DDB (heterodimer of DDB1 and DDB2), sequence (Q16531 whole entry, chain 1 of 2): as the sequence (Q16531 whole entry, chain 1 of 2) above
UV-DDB (heterodimer of DDB1 and DDB2), sequence (Q92466 whole entry, chain 2 of 2): as the sequence (Q92466 whole entry, chain 2 of 2) above

For 3x CPD λ-DNA (λ-I3), which binding signal (fold bound UV-DDB vs no XPC-RAD23B) [1] is on record?
Its binding signal (fold bound UV-DDB vs no XPC-RAD23B) is 5.5.

B1: XPC-RAD23B (complex, human)
chain 1: MARKRAAGGEPRGRELRSQKSKAKSKARREEEEEDAFEDEKPPKKSLLSKVSQGKRKRGCSHPGGSADGPAKKKVAKVTVKSENLKVIKDEALSDGDDLRDFPSDLKKAHHLKRGATMNEDSNEEEEESENDWEEVEELSEPVLGDVRESTAFSRSLLPVKPVEIEIETPEQAKTRERSEKIKLEFETYLRRAMKRFNKGVHEDTHKVHLLCLLANGFYRNNICSQPDLHAIGLSIIPARFTRVLPRDVDTYYLSNLVKWFIGTFTVNAELSASEQDNLQTTLERRFAIYSARDDEELVHIFLLILRALQLLTRLVLSLQPIPLKSATAKGKKPSKERLTADPGGSSETSSQVLENHTKPKTSKGTKQEETFAKGTCRPSAKGKRNKGGRKKRSKPSSSEEDEGPGDKQEKATQRRPHGRERRVASRVSYKEESGSDEAGSGSDFELSSGEASDPSDEDSEPGPPKQRKAPAPQRTKAGSKSASRTHRGSHRKDPSLPAASSSSSSSKRGKKMCSDGEKAEKRSIAGIDQWLEVFCEQEEKWVCVDCVHGVVGQPLTCYKYATKPMTYVVGIDSDGWVRDVTQRYDPVWMTVTRKCRVDAEWWAETLRPYQSPFMDREKKEDLEFQAKHMDQPLPTAIGLYKNHPLYALKRHLLKYEAIYPETAAILGYCRGEAVYSRDCVHTLHSRDTWLKKARVVRLGEVPYKMVKGFSNRARKARLAEPQLREENDLGLFGYWQTEEYQPPVAVDGKVPRNEFGNVYLFLPSMMPIGCVQLNLPNLHRVARKLDIDCVQAITGFDFHGGYSHPVTDGYIVCEEFKDVLLTAWENEQAVIERKEKEKKEKRALGNWKLLAKGLLIRERLKRRYGPKSEAAAPHTDAGGGLSSDEEEGTSSQAEAARILAASWPQNREDEEKQKLKGGPKKTKREKKAAASHLFPFEQL
chain 2: MQVTLKTLQQQTFKIDIDPEETVKALKEKIESEKGKDAFPVAGQKLIYAGKILNDDTALKEYKIDEKNFVVVMVTKPKAVSTPAPATTQQSAPASTTAVTSSTTTTVAQAPTPVPALAPTSTPASITPASATASSEPAPASAAKQEKPAEKPAETPVATSPTATDSTSGDSSRSNLFEDATSALVTGQSYENMVTEIMSMGYEREQVIAALRASFNNPDRAVEYLLMGIPGDRESQAVVDPPQAASTGAPQSSAVAAAAATTTATTTTTSSGGHPLEFLRNQPQFQQMRQIIQQNPSLLPALLQQIGRENPQLLQQISQHQEHFIQMLNEPVQEAGGQGGGGGGGSGGIAEAGSGHMNYIQVTPQEKEAIERLKALGFPEGLVIQAYFACEKNENLAANFLLQQNFDED
With B1 as the molecule, how does the “EMSA: binding of UV-DDB (0-25 nM) to DNA with 15 nM XPC-RAD23B against none” value [2] read?
The value was ~4 fold.

B2: CPD-containing 39 bp DNA (λ-I3_CPD / λ-I3_comp_FAM) (dsDNA)
DNA 1: TGCATGCGGCCGCTCTTCCCTTGGTGCGATCGCTCTTCG
DNA 2: CGAAGAGCGATCGCACCATGGGAAGAGCGGCCGCATGCA
modifications: cyclobutane pyrimidine dimer T21^T22 in strand 1; 5'-phosphate on strand 1
How did the binding signal [3] turn out when B2 was run?
The binding signal was 2.5 fold UV-DDB affinity vs no XPC-RAD23B.

What about the binding signal [4] of the same molecule?
The binding signal was ~4 fold UV-DDB binding vs no XPC-RAD23B.

What about the Kd [5, 8] of the same molecule?
The Kd was ~5 nM.

And the Kd [6, 8]?
The Kd was ~7 nM.

B3: undamaged 39 bp DNA (λ-I3_Dup / λ-I3_comp_FAM) (dsDNA)
DNA 1: TGCATGCGGCCGCTCTTCCCATGGTGCGATCGCTCTTCG
DNA 2: CGAAGAGCGATCGCACCATGGGAAGAGCGGCCGCATGCA
modifications: 5'-phosphate on strand 1
Which results are given for B3?
binding result [7]: binds; Kd [5]: ~26 nM; Kd [6]: ~9 nM
